From US20220017591A1 (AstraZeneca / MedImmune, published 2022)
Read-outs that look alike come from different tables or passages of the source.

What was measured:
Assay in all cases: cell-based or functional assay
human RXFP1 [1] = target: T1, human RXFP1 (human, UniProt Q9HBX9 1-757)
T1 sequence (looked up): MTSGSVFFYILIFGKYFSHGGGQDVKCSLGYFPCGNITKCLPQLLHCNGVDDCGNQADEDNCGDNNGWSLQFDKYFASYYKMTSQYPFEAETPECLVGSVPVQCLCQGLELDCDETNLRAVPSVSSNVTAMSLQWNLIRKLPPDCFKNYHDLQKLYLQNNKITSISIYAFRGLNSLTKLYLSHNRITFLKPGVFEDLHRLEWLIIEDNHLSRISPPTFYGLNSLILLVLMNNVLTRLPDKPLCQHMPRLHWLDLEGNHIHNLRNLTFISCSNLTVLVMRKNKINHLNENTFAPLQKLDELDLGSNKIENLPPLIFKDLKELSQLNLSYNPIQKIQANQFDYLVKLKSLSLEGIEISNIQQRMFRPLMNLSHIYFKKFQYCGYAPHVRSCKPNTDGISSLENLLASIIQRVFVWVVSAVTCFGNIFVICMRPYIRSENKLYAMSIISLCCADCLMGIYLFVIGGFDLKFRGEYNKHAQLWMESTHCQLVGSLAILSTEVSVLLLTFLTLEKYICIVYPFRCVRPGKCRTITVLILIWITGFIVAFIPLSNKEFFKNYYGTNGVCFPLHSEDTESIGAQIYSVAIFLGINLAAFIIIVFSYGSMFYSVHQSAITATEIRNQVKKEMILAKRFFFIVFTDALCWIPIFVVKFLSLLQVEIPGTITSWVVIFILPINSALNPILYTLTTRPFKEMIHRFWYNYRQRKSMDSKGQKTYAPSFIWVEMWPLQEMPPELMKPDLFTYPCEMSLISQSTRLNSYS

mouse RXFP1 [2] = target: T2, mouse RXFP1 (mouse, UniProt Q6R6I7 1-758)
T2 sequence (looked up): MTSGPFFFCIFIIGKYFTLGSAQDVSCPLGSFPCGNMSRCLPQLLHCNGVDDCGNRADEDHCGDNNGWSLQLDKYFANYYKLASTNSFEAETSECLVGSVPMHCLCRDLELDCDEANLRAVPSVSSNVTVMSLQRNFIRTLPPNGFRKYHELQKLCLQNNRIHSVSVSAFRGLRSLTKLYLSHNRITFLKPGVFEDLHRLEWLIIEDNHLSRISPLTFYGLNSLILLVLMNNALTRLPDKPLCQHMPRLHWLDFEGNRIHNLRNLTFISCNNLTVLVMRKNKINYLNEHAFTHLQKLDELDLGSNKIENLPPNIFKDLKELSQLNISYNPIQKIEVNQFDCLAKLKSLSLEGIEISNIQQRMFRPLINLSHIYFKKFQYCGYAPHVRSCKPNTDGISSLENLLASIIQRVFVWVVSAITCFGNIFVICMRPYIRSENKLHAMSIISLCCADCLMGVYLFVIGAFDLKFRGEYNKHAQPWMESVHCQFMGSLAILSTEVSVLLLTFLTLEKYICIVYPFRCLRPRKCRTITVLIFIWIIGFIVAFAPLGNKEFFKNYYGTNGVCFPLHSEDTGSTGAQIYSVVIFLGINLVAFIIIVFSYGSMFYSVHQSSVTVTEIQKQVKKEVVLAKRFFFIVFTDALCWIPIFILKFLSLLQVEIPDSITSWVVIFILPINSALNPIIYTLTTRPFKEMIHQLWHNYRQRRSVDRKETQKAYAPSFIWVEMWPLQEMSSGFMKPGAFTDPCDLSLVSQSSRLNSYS

human RXFP2 [3] = target: T3, human RXFP2 (human, UniProt Q8WXD0 1-754)
T3 sequence (Q8WXD0 whole entry): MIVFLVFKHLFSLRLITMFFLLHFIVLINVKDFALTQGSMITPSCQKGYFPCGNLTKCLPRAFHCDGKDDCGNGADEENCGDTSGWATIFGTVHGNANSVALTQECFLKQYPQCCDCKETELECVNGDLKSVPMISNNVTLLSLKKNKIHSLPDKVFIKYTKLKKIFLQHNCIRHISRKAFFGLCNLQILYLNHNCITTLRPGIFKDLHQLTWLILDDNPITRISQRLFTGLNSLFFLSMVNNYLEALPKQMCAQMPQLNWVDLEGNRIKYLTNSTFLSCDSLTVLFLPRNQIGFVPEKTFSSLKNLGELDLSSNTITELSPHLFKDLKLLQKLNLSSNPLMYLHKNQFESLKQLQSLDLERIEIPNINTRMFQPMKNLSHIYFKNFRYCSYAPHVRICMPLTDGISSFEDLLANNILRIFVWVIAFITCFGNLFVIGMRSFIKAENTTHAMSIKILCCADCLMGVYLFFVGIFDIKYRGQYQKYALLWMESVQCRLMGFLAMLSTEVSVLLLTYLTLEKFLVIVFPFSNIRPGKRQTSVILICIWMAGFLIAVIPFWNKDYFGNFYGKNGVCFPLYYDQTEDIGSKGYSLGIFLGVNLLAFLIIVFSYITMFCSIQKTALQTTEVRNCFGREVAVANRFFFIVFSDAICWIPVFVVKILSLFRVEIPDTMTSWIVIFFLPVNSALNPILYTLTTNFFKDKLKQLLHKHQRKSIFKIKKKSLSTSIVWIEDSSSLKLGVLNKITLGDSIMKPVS

human RXFP1 [4] = target: T1, human RXFP1; remark: listed apart in the source
mouse RXFP1 [5] = target: T2, mouse RXFP1; remark: listed apart in the source
human RXFP2 [6] = target: T3, human RXFP2; remark: listed apart in the source
human RXFP1 [7] = target: T1, human RXFP1; remark: listed apart in the source
mouse RXFP1 [8] = target: T2, mouse RXFP1; remark: listed apart in the source
human RXFP2 [9] = target: T3, human RXFP2; remark: listed apart in the source

B1: RELAX0023 (Fc fusion)
chain 1: DKTHTCPPCPAPEFEGGPSVFLFPPKPKDTLMISRTPEVTCVVVDVSHEDPEVKFNWYVDGVEVHNAKTKPREEQYNSTYRVVSVLTVLHQDWLNGKEYKCKVSNKALPASIEKTISKAKGQPREPQVYTLPPCREEMTKNQVSLWCLVKGFYPSDIAVEWESNGQPENNYKTTPPVLDSDGSFFLYSKLTVDKSRWQQGNVFSCSVMHEALHNHYTQKSLSLSPGGGGGSGGGGSGGGGSGGGGGSQLYSALANKCCHVGCTKRSLARFC
chain 2: DKTHTCPPCPAPEFEGGPSVFLFPPKPKDTLMISRTPEVTCVVVDVSHEDPEVKFNWYVDGVEVHNAKTKPREEQYNSTYRVVSVLTVLHQDWLNGKEYKCKVSNKALPASIEKTISKAKGQPREPQVCTLPPSREEMTKNQVSLSCAVKGFYPSDIAVEWESNGQPENNYKTTPPVLDSDGSFFLVSKLTVDKSRWQQGNVFSCSVMHEALHNHYTQKSLSLSPGGGGGSGGGGSGGGGSGGGGGSSWMEEVIKLCGRELVRAQIAICGMSTWS
EC50 hRXFP1 (M), cAMP assay (human RXFP1 [1]): 3.77e-11 M
EC50 mRXFP1 (M), cAMP assay (mouse RXFP1 [2]): 3.27e-11 M
EC50 hRXFP2 (M), cAMP assay (human RXFP2 [3]): 3.24e-08 M
EC50 hRXFP1 (M), cAMP assay (human RXFP1 [4]): 3.32e-11 M
EC50 mRXFP1 (M), cAMP assay (mouse RXFP1 [5]): 1.36e-11 M
EC50 hRXFP2 (M), cAMP assay (human RXFP2 [6]): 4.2e-08 M

B2: RELAX0024 (Fc fusion)
chain 1: DKTHTCPPCPAPEFEGGPSVFLFPPKPKDTLMISRTPEVTCVVVDVSHEDPEVKFNWYVDGVEVHNAKTKPREEQYNSTYRVVSVLTVLHQDWLNGKEYKCKVSNKALPASIEKTISKAKGQPREPQVCTLPPSREEMTKNQVSLSCAVKGFYPSDIAVEWESNGQPENNYKTTPPVLDSDGSFFLVSKLTVDKSRWQQGNVFSCSVMHEALHNHYTQKSLSLSPGGGGGSGGGGSGGGGSGGGGGSQLYSALANKCCHVGCTKRSLARFC
chain 2: DKTHTCPPCPAPEFEGGPSVFLFPPKPKDTLMISRTPEVTCVVVDVSHEDPEVKFNWYVDGVEVHNAKTKPREEQYNSTYRVVSVLTVLHQDWLNGKEYKCKVSNKALPASIEKTISKAKGQPREPQVYTLPPCREEMTKNQVSLWCLVKGFYPSDIAVEWESNGQPENNYKTTPPVLDSDGSFFLYSKLTVDKSRWQQGNVFSCSVMHEALHNHYTQKSLSLSPGGGGGSGGGGSGGGGSGGGGGSSWMEEVIKLCGRELVRAQIAICGMSTWS
EC50 hRXFP1 (M), cAMP assay (human RXFP1 [1]): 4.6e-11 M
EC50 mRXFP1 (M), cAMP assay (mouse RXFP1 [2]): 1.56e-11 M
EC50 hRXFP2 (M), cAMP assay (human RXFP2 [3]): 4.26e-08 M

B3: RELAX0019 (Fc fusion)
chain 1: GGAGGACPPCPAPEFEGGPSVFLFPPKPKDTLMISRTPEVTCVVVDVSHEDPEVKFNWYVDGVEVHNAKTKPREEQYNSTYRVVSVLTVLHQDWLNGKEYKCKVSNKALPASIEKTISKAKGQPREPQVYTLPPCREEMTKNQVSLWCLVKGFYPSDIAVEWESNGQPENNYKTTPPVLDSDGSFFLYSKLTVDKSRWQQGNVFSCSVMHEALHNHYTQKSLSLSPGGGGGSGGGGSGGGGSGGGGGSQLYSALANKCCHVGCTKRSLARFC
chain 2: GGAGGACPPCPAPEFEGGPSVFLFPPKPKDTLMISRTPEVTCVVVDVSHEDPEVKFNWYVDGVEVHNAKTKPREEQYNSTYRVVSVLTVLHQDWLNGKEYKCKVSNKALPASIEKTISKAKGQPREPQVCTLPPSREEMTKNQVSLSCAVKGFYPSDIAVEWESNGQPENNYKTTPPVLDSDGSFFLVSKLTVDKSRWQQGNVFSCSVMHEALHNHYTQKSLSLSPGGGGGSGGGGSGGGGSGGGGGSSWMEEVIKLCGRELVRAQIAICGMSTWS
EC50 hRXFP1 (M), cAMP assay (human RXFP1 [1]): 3.57e-11 M
EC50 mRXFP1 (M), cAMP assay (mouse RXFP1 [2]): 9.1e-12 M
EC50 hRXFP2 (M), cAMP assay (human RXFP2 [3]): 3.42e-08 M
EC50 hRXFP1 (M), cAMP assay (human RXFP1 [4]): 5.81e-11 M
EC50 mRXFP1 (M), cAMP assay (mouse RXFP1 [5]): 2.24e-11 M
EC50 hRXFP2 (M), cAMP assay (human RXFP2 [6]): 4.4e-08 M
EC50 hRXFP1 (M), cAMP assay (human RXFP1 [7]): 5.81e-11 M
EC50 mRXFP1 (M), cAMP assay (mouse RXFP1 [8]): 2.24e-11 M
EC50 hRXFP2 (M), cAMP assay (human RXFP2 [9]): 4.4e-08 M

B4: RELAX0020 (Fc fusion)
chain 1: GGAGGACPPCPAPEFEGGPSVFLFPPKPKDTLMISRTPEVTCVVVDVSHEDPEVKFNWYVDGVEVHNAKTKPREEQYNSTYRVVSVLTVLHQDWLNGKEYKCKVSNKALPASIEKTISKAKGQPREPQVYTLPPCREEMTKNQVSLWCLVKGFYPSDIAVEWESNGQPENNYKTTPPVLDSDGSFFLYSKLTVDKSRWQQGNVFSCSVMHEALHNHYTQKSLSLSPGGGGGSGGGGSGGGGSGGGGGSSWMEEVIKLCGRELVRAQIAICGMSTWS
chain 2: GGAGGACPPCPAPEFEGGPSVFLFPPKPKDTLMISRTPEVTCVVVDVSHEDPEVKFNWYVDGVEVHNAKTKPREEQYNSTYRVVSVLTVLHQDWLNGKEYKCKVSNKALPASIEKTISKAKGQPREPQVCTLPPSREEMTKNQVSLSCAVKGFYPSDIAVEWESNGQPENNYKTTPPVLDSDGSFFLVSKLTVDKSRWQQGNVFSCSVMHEALHNHYTQKSLSLSPGGGGGSGGGGSGGGGSGGGGGSQLYSALANKCCHVGCTKRSLARFC
EC50 hRXFP1 (M), cAMP assay (human RXFP1 [1]): 4.41e-11 M
EC50 mRXFP1 (M), cAMP assay (mouse RXFP1 [2]): 2.79e-11 M
EC50 hRXFP2 (M), cAMP assay (human RXFP2 [3]): 3.54e-08 M

B5: RELAX0022 (Fc fusion)
chain 1: GGAGGACPPCPAPEFEGGPSVFLFPPKPKDTLMISRTPEVTCVVVDVSHEDPEVKFNWYVDGVEVHNAKTKPREEQYNSTYRVVSVLTVLHQDWLNGKEYKCKVSNKALPASIEKTISKAKGQPREPQVYTLPPSREEMTKNQVSLSCAVKGFYPSDIAVEWESNGQPENNYKTTPPVLDSDGSFFLVSKLTVDKSRWQQGNVFSCSVMHEALHNHYTQKSLSLSPGGGGGSGGGGSGGGGSGGGGGSQLYSALANKCCHVGCTKRSLARFC
chain 2: GGAGGACPPCPAPEFEGGPSVFLFPPKPKDTLMISRTPEVTCVVVDVSHEDPEVKFNWYVDGVEVHNAKTKPREEQYNSTYRVVSVLTVLHQDWLNGKEYKCKVSNKALPASIEKTISKAKGQPREPQVYTLPPSREEMTKNQVSLWCLVKGFYPSDIAVEWESNGQPENNYKTTPPVLDSDGSFFLYSKLTVDKSRWQQGNVFSCSVMHEALHNHYTQKSLSLSPGGGGGSGGGGSGGGGSGGGGGSSWMEEVIKLCGRELVRAQIAICGMSTWS
EC50 hRXFP1 (M), cAMP assay (human RXFP1 [1]): 4.74e-11 M
EC50 mRXFP1 (M), cAMP assay (mouse RXFP1 [2]): 3.28e-11 M

B6: RELAX0013 (recombinant human Relaxin-2) (ligand)
chain 1: DSWMEEVIKLCGRELVRAQIAICGMSTWS
chain 2: QLYSALANKCCHVGCTKRSLARFC
EC50 hRXFP1 (M), cAMP assay (human RXFP1 [1]): 1.15e-12 M
EC50 mRXFP1 (M), cAMP assay (mouse RXFP1 [2]): 7.54e-13 M
EC50 hRXFP2 (M), cAMP assay (human RXFP2 [3]): 1.75e-09 M
EC50 hRXFP1 (M), cAMP assay (human RXFP1 [4]): 1.15e-12 M
EC50 mRXFP1 (M), cAMP assay (mouse RXFP1 [5]): 7.54e-13 M
EC50 hRXFP2 (M), cAMP assay (human RXFP2 [6]): 1.75e-09 M
EC50 hRXFP1 (M), cAMP assay (human RXFP1 [7]): 1.15e-12 M
EC50 mRXFP1 (M), cAMP assay (mouse RXFP1 [8]): 7.54e-13 M
EC50 hRXFP2 (M), cAMP assay (human RXFP2 [9]): 1.75e-09 M

B7: RELAX0091 (Fc fusion)
chain 1: QLYSALANKCCHVGCTKRSLARFCAAAGGGGSGGGGSGGGGSGGGGSACPPCPAPEFEGGPSVFLFPPKPKDTLMISRTPEVTCVVVDVSHEDPEVKFNWYVDGVEVHNAKTKPREEQYNSTYRVVSVLTVLHQDWLNGKEYKCKVSNKALPASIEKTISKAKGQPREPQVYTLPPCREEMTKNQVSLWCLVKGFYPSDIAVEWESNGQPENNYKTTPPVLDSDGSFFLYSKLTVDKSRWQQGNVFSCSVMHEALHNHYTQKSLSLSPG
chain 2: SWMEEVIKLCGRELVRAQIAICGMSTWSAAAGGGGSGGGGSGGGGSGGGGSACPPCPAPEFEGGPSVFLFPPKPKDTLMISRTPEVTCVVVDVSHEDPEVKFNWYVDGVEVHNAKTKPREEQYNSTYRVVSVLTVLHQDWLNGKEYKCKVSNKALPASIEKTISKAKGQPREPQVCTLPPSREEMTKNQVSLSCAVKGFYPSDIAVEWESNGQPENNYKTTPPVLDSDGSFFLVSKLTVDKSRWQQGNVFSCSVMHEALHNHYTQKSLSLSPG
EC50 hRXFP1 (M), cAMP assay (human RXFP1 [1]): 5.88e-11 M
EC50 mRXFP1 (M), cAMP assay (mouse RXFP1 [2]): 2.88e-11 M
EC50 hRXFP2 (M), cAMP assay (human RXFP2 [3]): > 1.09e-07 M
